Measured values reported in article PMC5095980.

Biological target: Human lactoferrin (human)
Test: small angle neutron scattering (SANS); iron containing samples in solution, 7 °C: iron saturated Lf (L3770; 100 mM MES, 150 mM NaCl, D2O) at pD 5 and pD 7, and partially saturated Lf (L3770 in the EDTA buffer, pD 5); concentration series 2.5-50 mg/ml, form factor extrapolated to c = 0, aggregates modelled by a Guinier term added to the monomer form factor

For Human lactoferrin (natural protein), the stoichiometry N was 10 monomers.
